According to PMC11055865, “Mechanism of DNA unwinding by MCM8-9 in complex with HROB”:

Key:
MCM8 R309D;MBP-MCM9 = MCM8 R309D;MBP-MCM9 (human;human, UniProt Q9UJA3;Q9NXL9 1-840;1-1143, R309D|); assay: mass photometry; 1 mM ATP, 2 mM Mg acetate; heterodimer bound plus likely hexamer (Peak 4); EMSA: 25 mM Tris-acetate pH 7.5, 3 mM EDTA (or 4 mM ATP/ATPgS + 1 mM Mg acetate), 1 mM DTT, 0.1 mg/ml BSA, 1 nM DNA (100 ng for M13), 15 min on ice, gels at 4 C; mass photometry: 25 mM HEPES-NaOH pH 7.5, 2 mM Mg acetate, 1 mM ATP, room temperature; conditions: protein: recombinant;recombinant; tags: N-terminal FLAG;N-terminal MBP (not cleaved); chain copies: 3;3; single strand
HROB-ΔOB = molecular target: T1, HROB-ΔOB (human, UniProt Q8N3J3-4 1-490+575-646, T126P;internal_change); assay: EMSA; 3 mM EDTA; comparable to WT HROB; EMSA: 25 mM Tris-acetate pH 7.5, 3 mM EDTA (or 4 mM ATP/ATPgS + 1 mM Mg acetate), 1 mM DTT, 0.1 mg/ml BSA, 1 nM DNA (100 ng for M13), 15 min on ice, gels at 4 C; mass photometry: 25 mM HEPES-NaOH pH 7.5, 2 mM Mg acetate, 1 mM ATP, room temperature; conditions: protein: recombinant; tags: FLAG; label: 3' 32P-dC (terminal transferase); single strand
T1 sequence: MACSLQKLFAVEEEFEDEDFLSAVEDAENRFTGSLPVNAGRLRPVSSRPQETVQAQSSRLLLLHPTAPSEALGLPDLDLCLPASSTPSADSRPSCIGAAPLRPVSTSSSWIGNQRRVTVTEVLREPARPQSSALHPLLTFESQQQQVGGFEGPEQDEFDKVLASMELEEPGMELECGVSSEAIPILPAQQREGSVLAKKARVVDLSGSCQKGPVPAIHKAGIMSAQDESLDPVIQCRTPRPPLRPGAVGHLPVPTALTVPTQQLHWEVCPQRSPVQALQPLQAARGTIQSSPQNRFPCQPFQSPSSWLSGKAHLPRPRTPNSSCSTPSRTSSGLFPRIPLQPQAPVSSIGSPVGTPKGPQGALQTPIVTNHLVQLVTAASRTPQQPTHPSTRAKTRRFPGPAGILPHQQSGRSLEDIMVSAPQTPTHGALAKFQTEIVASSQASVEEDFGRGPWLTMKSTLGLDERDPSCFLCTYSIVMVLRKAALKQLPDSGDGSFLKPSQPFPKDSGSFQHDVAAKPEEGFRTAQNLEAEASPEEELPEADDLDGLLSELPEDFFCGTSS

HROB-FLAG [1] = molecular target: T2, HROB-FLAG (human, UniProt Q8N3J3-4 1-646, T126P); assay: EMSA; 3 mM EDTA; EMSA: 25 mM Tris-acetate pH 7.5, 3 mM EDTA (or 4 mM ATP/ATPgS + 1 mM Mg acetate), 1 mM DTT, 0.1 mg/ml BSA, 1 nM DNA (100 ng for M13), 15 min on ice, gels at 4 C; mass photometry: 25 mM HEPES-NaOH pH 7.5, 2 mM Mg acetate, 1 mM ATP, room temperature; conditions: protein: recombinant; tags: C-terminal FLAG; label: 3' 32P-dC (terminal transferase); single strand
T2 sequence: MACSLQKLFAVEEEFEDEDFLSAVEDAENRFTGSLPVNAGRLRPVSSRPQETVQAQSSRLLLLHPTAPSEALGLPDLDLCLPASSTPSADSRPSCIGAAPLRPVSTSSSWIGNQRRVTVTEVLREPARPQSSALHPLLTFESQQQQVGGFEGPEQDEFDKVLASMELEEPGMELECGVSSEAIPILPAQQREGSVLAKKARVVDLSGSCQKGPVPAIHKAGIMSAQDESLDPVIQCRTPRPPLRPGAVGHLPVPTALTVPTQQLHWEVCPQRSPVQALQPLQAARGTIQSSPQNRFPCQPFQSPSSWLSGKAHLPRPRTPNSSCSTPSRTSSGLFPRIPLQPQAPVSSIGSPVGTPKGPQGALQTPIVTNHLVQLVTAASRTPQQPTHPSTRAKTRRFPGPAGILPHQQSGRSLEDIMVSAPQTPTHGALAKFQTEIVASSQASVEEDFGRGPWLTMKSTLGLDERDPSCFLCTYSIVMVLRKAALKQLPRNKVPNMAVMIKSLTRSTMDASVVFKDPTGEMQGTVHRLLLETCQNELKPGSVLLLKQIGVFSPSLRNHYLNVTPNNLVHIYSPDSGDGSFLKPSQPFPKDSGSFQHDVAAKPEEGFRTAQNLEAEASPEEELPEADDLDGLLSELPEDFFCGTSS

HROB-FLAG [2] = molecular target: T2, HROB-FLAG; assay: EMSA; 3 mM EDTA; preferred; EMSA: 25 mM Tris-acetate pH 7.5, 3 mM EDTA (or 4 mM ATP/ATPgS + 1 mM Mg acetate), 1 mM DTT, 0.1 mg/ml BSA, 1 nM DNA (100 ng for M13), 15 min on ice, gels at 4 C; mass photometry: 25 mM HEPES-NaOH pH 7.5, 2 mM Mg acetate, 1 mM ATP, room temperature; conditions: protein: recombinant, tags: C-terminal FLAG

Sequence of MCM8 R309D;MBP-MCM9 (Q9UJA3 whole entry R309D, chain 1 of 2): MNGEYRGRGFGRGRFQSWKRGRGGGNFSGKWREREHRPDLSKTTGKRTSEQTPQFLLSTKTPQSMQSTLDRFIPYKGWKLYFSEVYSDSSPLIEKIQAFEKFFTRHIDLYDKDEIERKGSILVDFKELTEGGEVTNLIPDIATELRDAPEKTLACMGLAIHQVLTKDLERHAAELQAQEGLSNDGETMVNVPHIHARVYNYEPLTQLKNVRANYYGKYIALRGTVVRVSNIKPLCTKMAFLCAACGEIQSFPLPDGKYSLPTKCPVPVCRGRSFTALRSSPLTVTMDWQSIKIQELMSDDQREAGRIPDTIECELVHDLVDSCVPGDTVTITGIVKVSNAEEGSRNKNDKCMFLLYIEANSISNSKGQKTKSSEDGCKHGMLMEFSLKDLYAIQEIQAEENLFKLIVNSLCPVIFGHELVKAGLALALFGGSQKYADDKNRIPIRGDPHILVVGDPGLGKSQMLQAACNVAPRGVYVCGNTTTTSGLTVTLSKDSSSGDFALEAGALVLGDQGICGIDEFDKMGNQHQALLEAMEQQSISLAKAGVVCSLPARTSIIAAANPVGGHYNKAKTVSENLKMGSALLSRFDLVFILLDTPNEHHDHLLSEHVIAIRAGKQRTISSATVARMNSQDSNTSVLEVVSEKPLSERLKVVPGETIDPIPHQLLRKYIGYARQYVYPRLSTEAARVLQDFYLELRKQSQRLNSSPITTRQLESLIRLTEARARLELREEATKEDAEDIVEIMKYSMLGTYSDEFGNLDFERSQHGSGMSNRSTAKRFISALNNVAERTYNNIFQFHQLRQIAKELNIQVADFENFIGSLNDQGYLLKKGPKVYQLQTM
Sequence of MCM8 R309D;MBP-MCM9 (Q9NXL9 whole entry, chain 2 of 2): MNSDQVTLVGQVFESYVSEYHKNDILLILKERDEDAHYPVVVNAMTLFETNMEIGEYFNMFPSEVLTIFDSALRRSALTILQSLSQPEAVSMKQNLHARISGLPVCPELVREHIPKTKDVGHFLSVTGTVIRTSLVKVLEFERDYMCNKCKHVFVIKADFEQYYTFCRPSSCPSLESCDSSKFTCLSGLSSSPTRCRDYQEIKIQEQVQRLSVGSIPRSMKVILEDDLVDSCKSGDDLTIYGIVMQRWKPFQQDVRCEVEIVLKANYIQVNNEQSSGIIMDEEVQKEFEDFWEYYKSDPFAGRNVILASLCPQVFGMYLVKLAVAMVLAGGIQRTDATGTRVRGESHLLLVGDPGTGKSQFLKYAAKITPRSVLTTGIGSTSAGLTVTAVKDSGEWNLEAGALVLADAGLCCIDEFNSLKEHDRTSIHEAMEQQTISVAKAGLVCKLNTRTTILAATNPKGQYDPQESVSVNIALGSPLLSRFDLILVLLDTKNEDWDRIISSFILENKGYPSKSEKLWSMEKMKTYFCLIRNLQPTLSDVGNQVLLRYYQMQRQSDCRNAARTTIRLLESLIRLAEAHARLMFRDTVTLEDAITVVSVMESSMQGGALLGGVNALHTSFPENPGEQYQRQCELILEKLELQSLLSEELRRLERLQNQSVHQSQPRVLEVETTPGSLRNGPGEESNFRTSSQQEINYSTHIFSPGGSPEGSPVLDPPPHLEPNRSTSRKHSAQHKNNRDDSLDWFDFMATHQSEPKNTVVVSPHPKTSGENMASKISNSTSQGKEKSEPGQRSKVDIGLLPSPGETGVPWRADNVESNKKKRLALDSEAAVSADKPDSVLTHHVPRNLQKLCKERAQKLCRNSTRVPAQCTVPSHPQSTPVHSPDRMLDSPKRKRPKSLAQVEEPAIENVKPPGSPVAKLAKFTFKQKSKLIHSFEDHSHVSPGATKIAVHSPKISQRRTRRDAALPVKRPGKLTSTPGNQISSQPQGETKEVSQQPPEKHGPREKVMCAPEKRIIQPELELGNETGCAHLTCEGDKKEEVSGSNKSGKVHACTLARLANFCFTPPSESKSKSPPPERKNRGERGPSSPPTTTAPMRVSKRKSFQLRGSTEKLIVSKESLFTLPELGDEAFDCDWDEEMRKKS

B1: PC216 (70 nt ssDNA) (ssDNA)
DNA: GTAAGTGCCGCGGTGCGGGTGCCAGGGCGTGCCCTTGGGCTCCCCGGGCGCGTACTCCACCTCATGCATC
Question: Does B1 bind (MCM8 R309D;MBP-MCM9)?
Answer: Result: binds

B2: X12-3 HJ3 (93 nt ssDNA) (ssDNA)
DNA: GAGATCTATCTGGTGCCTTCTGACAGTGAATGGGTAACGAATCGTAATAGTCTCTAGACAGCATGTCCTAGCAATGTAATCGTCTATGACGTC
Question: What does the source list for B2?
Answer: binding result (HROB-ΔOB): binds; binding result (HROB-FLAG [1]): binds

B3: Holliday junction (PC1253/PC1254/PC1255/PC1256) (structured_DNA)
DNA 1: TGGGTCAACGTGGGCAAAGATGTCCTAGCAATGTAATCGTCTATGACGTT
DNA 2: TGCCGAATTCTACCAGTGCCAGTGATGGACATCTTTGCCCACGTTGACCC
DNA 3: GTCGGATCCTCTAGACAGCTCCATGATCACTGGCACTGGTAGAATTCGGC
DNA 4: CAACGTCATAGACGATTACATTGCTACATGGAGCTGTCTAGAGGATCCGA
Question: Does B3 bind (HROB-FLAG [2]; label: 3' 32P-dC on PC1253, four-way junction 1:2 2:3 3:4 4:1)?
Answer: Result: binds

B4: Y-structure (PC1254/PC1253) (structured_DNA)
DNA 1: B3 DNA 2
DNA 2: B3 DNA 1
Question: Does B4 bind (HROB-FLAG [2]; label: 3' 32P-dC on PC1254, fork 1:2)?
Answer: Result: binds
